# Laboratory results as given in patent US20160228506A1, “Compositions and Formulations for Prevention and Reduction of Tumorigenesis, Cancer Cell Proliferation and Invasion, and Methods of Production and Use Thereof in Cancer Treatment” (PRONUTRIA, INC., priority 2013, published 2016).
# Like-named read-outs stand apart in the source and are kept apart here.
# How the values were obtained:
# Pancreatin = type: in vitro ADME, Porcine
# Description: Control samples were protease-free.
# Analyses were performed using an Agilent 1100 series system.
# [1] = Thermostability, temperature of aggregation (ProteoStat Thermal Shift); type: physicochemical; design: key to Tagg: temperature in °C
# In short: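 Protein at about 10 mg/ml in citric acid/dibasic sodium phosphate buffers spanning pH 2.8–7.1, with 1× ProteoStat TS detection reagent. Samples heated from 25 °C to 95 °C at 0.5 °C per 30 sec in a real-time PCR thermocycler. Aggregation followed by fluorescence through a Texas Red filter.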
# pH solubility = type: physicochemical; conditions: for pH Range where Protein is >80% detected as Soluble and A650 <1 OD: Low: lower pH; for pH Range where Protein is >80% detected as Soluble and A650 <1 OD: High: upper pH
# Description: pH Solubility. […] Protein was either lyophilized and then resuspended in buffer cocktail mixtures, or concentrated and then spiked into buffer cocktail mixtures at a final protein concentration of 5 to 30 mg/ml. As a control, protein was also dissolved in a solution of 8 M urea. Protein solutions were shaken for 10 min at room temperature. Turbidity of proteins was determined by measuring the absorbance of protein solutions at 650 nm. The protein solution was then centrifuged for 10 min at 1100×g to pellet undissolved or precipitated protein. The soluble protein fraction (supernatant) was sampled and protein concentration was measured by one or more of the following methods: Coomassie Plus Protein Assay (Pierce), Chip electrophoresis, gel electrophoresis, and/or absorbance at 280 nm. The pH range over which select proteins remained greater than 80% soluble as determined by Bradford and the A650 value are listed in Table E31C.
# [2] = SGF digest of 168 nutritive polypeptide library, intact protein by LC-MS/MS; type: in vitro ADME; conditions: for % Intact Protein at 10 min: 168 nutritive polypeptide library SGF digest, LC-MS/MS spectral counts; for % Remaining at 10 min: 168 nutritive polypeptide library, LC-MS/MS
# In short: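 Spectral-count ratios (10 min vs 0 min, peak gel fraction plus neighbours) give the percent of each protein left intact after SGF digestion of a pooled, IMAC-purified 168-member recombinant library. Samples were gel-fractionated, trypsinised in-gel and run on Orbitrap nanoLC-MS/MS, requiring two unique peptides at 1% FDR.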
# [3] = Intact half-life during simulated gastric fluid (SGF) digestion; conditions: for SGF Half-life (t½): SGF pH 1.5, pepsin:polypeptide 1:20 w/w, 37° C., intact protein; for Half-life: purified proteins, chip electrophoresis
# [4] = simulated gi fluid
# [5] = rat, in vivo, po
# Description: The boavailability o native and modified forms (ie. deglycosylated and hydrolyzed) of SEQID-00363 was evaluated using the methods described in herein. Briefly, native and modified forms of SEQID-00363 were orally administered to intrajugular-cannulated rats and concentration of free amino acids in plasma samples collected over a 4 h period was determined by HPLC amino acid analysis.
# [6] = rat, in vivo
# Description: A rat pharmacokinetic study with oral administration of native and modified forms of SEQID-00363 was performed as described herein. The indigestible marker Cobalt-EDTA was formulated at 50 mg/L in the dosed protein solutions to monitor differences in intestinal transit rate between treatment groups and individual rats. Following the final blood collection (at t=4 h) rats were euthanized and the terminal ileum (20 cm of small intestine prior to the cecum) and its contents (the digesta) were collected into a pre-weighed tube. The ileum was flushed with saline and pooled with the digesta. The pH of the digesta was adjusted to ˜3.0 with HCl in order to inactivate all enzymes. The ileum samples were placed into separate pre-weighed 15 mL conical tubes. All samples were flash frozen in liquid nitrogen, and stored at −80° C. until further analysis. Individual ileum and ileum content weights were calculated and recorded for each sample.
# A sample of the digesta, which exists as a heterogenous solution containing insoluble particles, was used in the Coomassie Plus Protein Assay, as described herein, to determine protein concentration.
# α-amylase = assay: Amylase activity assay on starch plates (halo); design: species or system Bacillus subtilis
# Description: SEQID-00407 is an α-amylase in Bacillus subtilis that has the activity of breaking down polysaccharides, such as starch, into monosaccharides or disaccharides. […] If there is enzymatic activity, the secreted enzyme will breakdown the starch and upon staining by iodine, there will be a halo surrounding the Bacillus subtilis colonies. 1% starch plates were made by combining 25 g Luria Broth-Miller, 10 g starch, 15 g bacteriological agar, and 1 L water. 10 mM IPTG was added to the starch plates after the agar has solidified. Single colonies of Bacillus subtilis strains expressing the mutant polypeptides were inoculated in 5 ml LB at 37° C. for 4 hours and 50 μl of the liquid culture were spotted at the center for the starch plates. After 20 hours of growth and induced secretion, 10% iodine was added to the starch plates to stain for starch. When the wild-type enzyme is secreted, it creates a large halo around the cells. […] Table E37A quantifies the area of the halos relative to the area of the cells. […]
# SEQID-00407 is an α-amylase in Bacillus subtilis that has the activity of breaking down polysaccharides, such as starch, into monosaccharides or disaccharides. […] Table E38E quantifies the area of the halos relative to the area of the cells.
Molecule,Free Leu (μM) at 120 min time point of Pancreatin digest (Pancreatin),Tagg ([1]; pH 5.0),Tagg ([1]; pH 5.6),Tagg ([1]; pH 6.0),Tagg ([1]; pH 6.5),Tagg ([1]; pH 7.1),pH Range where Protein is >80% detected as Soluble and A650 <1 OD: Low (pH solubility),pH Range where Protein is >80% detected as Soluble and A650 <1 OD: Other (pH solubility; other pH),pH Range where Protein is >80% detected as Soluble and A650 <1 OD: High (pH solubility),% Intact Protein at 10 min [2],% Remaining at 10 min [2],SGF Half-life (t½) [3],Half-life [3],Tagg ([1]; pH 4.6),SGF Half-life (t½) [4],bioavailability of Leucine and EAAs versus native SEQID-00363 [5],bioavailability of Serine and Threonine versus native SEQID-00363 [5],total protein mass in digesta samples [6],Halo/Cell (α-amylase; area of halo relative to area of cells),"Halo Area (in^2) (α-amylase; starch plate, iodine stain, 20 hours)"
"SEQID-00485: nutritive polypeptide naturally produced in Chickpea, recombinantly expressed in E. coli (protein, listed as Cicer arietinum) MTKTGYINAAFRSSRNNEAYLFINDKYVLLDYAPGTSNDKVLYGPSFVRDGYKSLAKTIFGTYGIDCSFDTEYNEAFIFYENFCARIDYAPHSDKDKIISGPKKIADMFPFFKGTVFENGIDAAFRSTKGKEVYLFKGDKYARIDYLTNRLVQNIKSISDGFPCLRGTIFEAGMDSAFASHKTNEAYLFKGEYYARINFTPGSTNDIMGGVKKTLDYWPSLRGIIPLE",764.9 µM,31.5,34.5,36,36.5,36,4.6,2.8,7.1,0%,0%,30 s,30 s,,,,,,,
"SEQID-00605: nutritive polypeptide naturally produced in Mushroom, recombinantly expressed in E. coli (protein, listed as Agaricus bisporus, source: /note=""var. bisporus""; source: /note=""strain H97 / ATCC MYA-4626 / FGSC 10389"", nutritive polypeptide naturally produced in Mushroom, recombinantly expressed in E. coli) MLEFTLNDGNRIPAIAFGTGTALYNQDASAFVRLAIETGITHLDGAQMYENEETLGKGIKSSGKPRSELFITTKLHILKPGQTVRETLVESLGKIGVDYVDLFLIHDPTANRKEATLSEIWSQLEALKNEGLTKSIGVSNFKVEDLNEILPGAKIIPAVNQIEFHPYVLKAASPIIELCKAKGIIVASYGGQTPIVRATDGPLKDLLPKIRERLEQTRGSPVTEGQVLTKWLLQKNVIAISTSSKESRIKEFLSTVDVPDLTKQEIESIDNAGSTIHKRIYMKHIFNE",937.1 µM,33.5,37,44.5,38.5,39,5.6,,7.1,0%,0%,12 s,12 s,40.5,,,,,,
"Deglycosylated SEQID-00363: SEQID-00363 with mannose glycans reduced enzymatically by alpha mannosidase (protein, deglycosylated; Aspergillus niger) ATLDSWLSNEATVARTAILNNIGADGAWVSGADSGIVVASPSTDNPDYFYTWTRDSGLVLKTLVDLFRNGDTSLLSTIENYISAQAIVQGISNPSGDLSSGAGLGEPKFNVDETAYTGSWGRPQRDGPALRATAMIGFGQWLLDNGYTSTATDIVWPLVRNDLSYVAQYWNQTGYDLWEEVNGSSFFTIAVQHRALVEGSAFATAVGSSCSWCDSQAPEILCYLQSFWTGSFILANFDSSRSGKDANTLLGSIHTFDPEAACDDSTFQPCSPRALANHKEVVDSFRSIYTLNDGLSDSEAVAVGRYPEDTYYNGNPWFLCTLAAAEQLYDALYQWDKQGSLEVTDVSLDFFKALYSDAATGTYSSSSSTYSSIVDAVKTFADGFVSIVETHAASNGSMSEQYDKSDGEQLSARDLTWSYAALLTANNRRNSVVPASWGETSASSVPGTCAATSAIGTYSSVTVTSWPSIVATGGTTTTATPTGSGSVTSTSKTTATASKTSTSTSSTSCTTPTAVAVTFDLTATTTYGENIYLVGSISQLGDWETSDGIALSADKYTSSDPLWYVTVTLPAGESFEYKFIRIESDDSVEWESDPNREYTVPQACGTSTATVTDTWR",799.2 µM,,,,,,,,,,,,,,258 s,did not increase the bioavailability,did increase the bioavailability,7.7 mg,,
"SEQID-00690: engineered secreted variant of SEQID-00407 enriched in essential amino acids which retains enzymatic activity (protein, listed as Bacillus subtilis, source: /note=""strain 168"") ETANKSNELTAPSIKSGTILHAWNWSFNTLKHNMKDIHDAGYTAIQTSPINQVKEGNQGDKSMSNWYWLYQPTSYQIGNRYLGTEQEFKEMCAAAEEYGIKVIVDAVINHTTSDLVGVLSNEVKSIPNWTHGNTQIKNWSDRWDVTQNSLLGLYDWNTQNTQVQSYLKRFLDRALNDGADGFRFDAAKHIELPDDGSYGSQFWPNITRVVMEFQYGEILQDSASRDAAYANYMDVTASNYGHSIRSALKNRNLGVSNIVMYILRVSADKLVTWVESHDTYANDDEESTWMSDDDIRLGWAVIASRSGSTPLFFSRPEGGGNGVRFPGKSQIGDRGSALFEDQAITAVNRFHNVMAGLPKRLSNPNGNNQIFMNQRGSHGVVLANAGSSSVSINTATKLPDGRYDNKAGAGSFQVNDGKLTGTINARSVAVLYPDDIAKAPHVFLENYKTGVTHSFNDQLTITMRADANTTKAVYQINNGPETAFKDGDQFTIGKGDPFGKTYTIMLKGTNSDGVTRTEKYSFVKRDPASAKTIGYQNPNHWSQVNAYIYKHDGSRVIELTGSWPGKPMTKNADGIYTLTLPADTDTTNAKVIFNNGSAQVPGQNQPGFDYVLNGLYNDSGLSGSLPH",,,,,,,,,,,,264 s,,,,,,,2.63,1.234 in^2
